From publication PMC4549274

Columns and labels:
Experiment in all cases: native MS; nano-ESI native MS, 15 μM monomer, buffer-exchanged into 100 mM ammonium acetate pH 8.5, positive ion mode
[1] = molecular target: CrRbcX-IIa(34–156) (Chlamydomonas reinhardtii)
[2] = molecular target: CrRbcX-IIa(33–189) (Chlamydomonas reinhardtii)
[3] = molecular target: CrRbcX-IIa(34–189) (Chlamydomonas reinhardtii)

CrRbcX-IIa(34–156) (domain or fragment)
stoichiometry N [1]: 4

CrRbcX-IIa(33–189) (natural protein)
stoichiometry N [2]: 2

CrRbcX-IIa(34–189) (domain or fragment)
stoichiometry N [3]: 4
